Laboratory results from article PMC11617747 (Heliyon, 2024).

Assays:
[1] = molecular target: the molecule itself; experiment: crystal structure
[2] = molecular target: the molecule itself; experiment: SEC
[3] = molecular target: T1, N-MabR (Mycobacterium tuberculosis, UniProt P9WPH5 1-160); experiment: EMSA; up to 20 uM protein; […], room temperature 30 min; ITC: 50 mM Tris pH 7.5, 150 mM NaCl, 20 C; details: protein: recombinant; tags: N-terminal 6xHis (pET28a); chain copies: 2; blunt
T1 sequence: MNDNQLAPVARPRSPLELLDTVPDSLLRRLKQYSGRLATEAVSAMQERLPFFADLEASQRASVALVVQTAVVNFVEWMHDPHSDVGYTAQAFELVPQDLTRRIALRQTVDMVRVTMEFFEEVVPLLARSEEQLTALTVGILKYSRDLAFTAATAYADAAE

[4] = molecular target: T2, C-MabR (Mycobacterium tuberculosis, UniProt P9WPH5 161-414); experiment: TSA (isothermal analysis); 46 C, apparent; […], room temperature 30 min; ITC: 50 mM Tris pH 7.5, 150 mM NaCl, 20 C; details: protein: recombinant; tags: N-terminal 6xHis (pET28a); chain copies: 2; blunt
T2 sequence: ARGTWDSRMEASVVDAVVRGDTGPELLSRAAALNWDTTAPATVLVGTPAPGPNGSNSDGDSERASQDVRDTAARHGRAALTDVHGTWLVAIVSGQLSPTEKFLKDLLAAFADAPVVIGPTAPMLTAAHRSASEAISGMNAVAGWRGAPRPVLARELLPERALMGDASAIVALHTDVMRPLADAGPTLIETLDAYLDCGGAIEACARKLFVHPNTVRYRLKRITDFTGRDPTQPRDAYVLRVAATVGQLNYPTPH

[5] = molecular target: T2, C-MabR; experiment: ITC; 20 C; 50 mM Tris pH 7.5, 150 mM NaCl; […]; […], room temperature 30 min; ITC: 50 mM Tris pH 7.5, 150 mM NaCl, 20 C; details: protein: recombinant; tags: N-terminal 6xHis (pET28a); chain copies: 2; blunt

B1: C-terminal domain of Mycobacterium tuberculosis MabR (Rv2242), residues 161-414 (domain or fragment)
chain: ARGTWDSRMEASVVDAVVRGDTGPELLSRAAALNWDTTAPATVLVGTPAPGPNGSNSDGDSERASQDVRDTAARHGRAALTDVHGTWLVAIVSGQLSPTEKFLKDLLAAFADAPVVIGPTAPMLTAAHRSASEAISGMNAVAGWRGAPRPVLARELLPERALMGDASAIVALHTDVMRPLADAGPTLIETLDAYLDCGGAIEACARKLFVHPNTVRYRLKRITDFTGRDPTQPRDAYVLRVAATVGQLNYPTPH
B1: binds [1].

B2: N-terminal domain of Mycobacterium tuberculosis MabR (Rv2242), residues 1-160 (domain or fragment)
chain: MNDNQLAPVARPRSPLELLDTVPDSLLRRLKQYSGRLATEAVSAMQERLPFFADLEASQRASVALVVQTAVVNFVEWMHDPHSDVGYTAQAFELVPQDLTRRIALRQTVDMVRVTMEFFEEVVPLLARSEEQLTALTVGILKYSRDLAFTAATAYADAAE
For B2, the “stoichiometry N” value [2] was 2.

B3: 23-bp FAS-II promoter dsDNA (dsDNA)
DNA 1: GTTTTGTTGGTTATATACAAAAA
DNA 2: TTTTTGTATATAACCAACAAAAC
With B3 the binding result [3] was “no binding”, the Kd [4] was ~1 µM and the Kd [5] was 4.3 µM.
